Assay results taken from patent US20160303217A1 (ENGINEERED ANTIGENS, published 2016).

Experiments:
porcine transferrin [1] = biological target: T1, porcine transferrin (porcine, UniProt P09571 1-696); test: isothermal calorimetry, surface plasmon resonance or biolayer interferometry
T1 construct: also called pTf; porcine Tf

porcine transferrin [2] = biological target: T1, porcine transferrin; test: affinity capture from cell lysate on porcine Tf-Sepharose, SDS-PAGE
porcine transferrin [3] = biological target: T1, porcine transferrin; test: solid-phase (dot) binding assay with HRP-conjugated porcine transferrin; also capture on porcine Tf-Sepharose

T1 sequence (P09571 whole entry): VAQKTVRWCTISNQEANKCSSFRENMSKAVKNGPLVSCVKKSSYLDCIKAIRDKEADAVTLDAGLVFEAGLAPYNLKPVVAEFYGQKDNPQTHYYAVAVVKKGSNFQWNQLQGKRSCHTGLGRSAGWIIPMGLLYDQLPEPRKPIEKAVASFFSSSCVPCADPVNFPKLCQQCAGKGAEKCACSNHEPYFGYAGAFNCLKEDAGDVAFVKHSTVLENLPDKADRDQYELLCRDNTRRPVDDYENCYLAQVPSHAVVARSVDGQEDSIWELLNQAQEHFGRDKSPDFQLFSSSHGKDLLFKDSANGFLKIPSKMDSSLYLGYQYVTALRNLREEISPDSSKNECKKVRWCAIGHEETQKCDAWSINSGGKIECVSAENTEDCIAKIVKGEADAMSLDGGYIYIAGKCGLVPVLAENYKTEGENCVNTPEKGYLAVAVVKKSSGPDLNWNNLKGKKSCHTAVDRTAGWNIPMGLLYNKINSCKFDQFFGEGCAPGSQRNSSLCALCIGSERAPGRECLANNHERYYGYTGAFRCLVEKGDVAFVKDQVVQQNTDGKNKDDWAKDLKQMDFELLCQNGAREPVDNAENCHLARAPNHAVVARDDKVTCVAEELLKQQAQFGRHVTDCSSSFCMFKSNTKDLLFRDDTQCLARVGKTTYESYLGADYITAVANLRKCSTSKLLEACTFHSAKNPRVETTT

| Binder | fold increase in the affinity constant (Kd) against the native TbpB (porcine transferrin [1]) [fold] | also measured |
| --- | --- | --- |
| F171A mutant of ApH49 TbpB 20-528 (receptor, also called F171A mutation in the TbpB from A. pleuropneumoniae strain H49) GVSKEEYKDVETAKKEKEQLGELMEPALGYVVKVPVSSFENKKVDISDIEVITNGNLDDVPYKANSSKYNYPDIKTKDSSLQYVRSGYVIDGEHSGSNEKGYVYYKGNSPAKELPVNQLLTYTGSWDFTSNANLNNEEGRPNYLNDDYYTKAIGKRVGLVSGDAKPAKHKYTSQFEVDFATKKMTGKLSDKEKTIYTVNADIRGNRFTGAATASDKNKGKGESYNFFSADSQSLEGGFYGPKAEEMAGKFVANDKSLFAVFSAKHNGSNVDTVRIIDASKIDLTNFSISELNNFGDASVLIIDGKKIKLAGSGFTNKHTIEINGKTMVAVACCSNLEYMKFGQLWQQAEGGKPENNSLFLQGERTATDKMPKGGNYKYIGTWDAQVSKENNWVATADDDRKAGYRTEFDVDFGNKNLSGKLFDKNGVNPVFTVDAKIDGNGFTGKAKTSDAGFALDSGSSRYENVKFNDVAVSGGFYGPTAAELGGQFHHKSENGSVGAVFG | 100 |  |
| engineered (loop-reduced) TbpB N-lobe from Actinobacillus pleuropneumoniae strain H49, fusion protein with N-terminal maltose binding protein and polyhistidine … (receptor, also called engineered TbpB N-lobe H49; modified N-lobe; not shown: N-terminal polyhistidine region of the custom expression vector; TEV (tobacco etch virus) cleavage site) GSGVSKEEYKDVETAKKEKEQLGELGELMEPALGYVVKVPVSAGKKVDISDIEVITNGNLDDVPYKANSSKYNYPDIKTKDSSLQYVRSGYVISPDGGYVYYKGNSPAKELPVNQLLTYTGSWDFTSNANLNAARPAGAGKRVGLVSGDAKERKYTSQFEVDFATKKMTGKLSDKEKTIYTVNADIRGNRFTGAATASDKNDPILSADSQSLEGGFYGPKAEEMAGKFVANDKSLFAVFSAKHNGSNV |  | binding result (porcine transferrin [2]): no binding |
| A. suis TbpB 27-577 (amino acid 27-577) derived from strain H57, purified recombinant truncated protein (receptor, also called AsH57 TbpB; TbpB from Actinobacillus suis) SYQDEETKKKTKEELDKLMEPTLGVEAKIPRRNRALFDKEGNRKATPDTTDELSEAQIMAIWNENIDEIPHLKELNDKTTSGLIYHSHDGKQEDKKRNLQYVRSGYVFDESYSEIVKNKNGVPYIFKNGIDGYIYYLGTSPSKELPKGNKVTYKGTWDFTSDVKTSYELSGFSDAGNGKNVAATSISDNVNRDHKVGEKLGDNEVKGVAHSSEFAVDFDNKKLTGSLYRNGYINRNKAQEVTKRYSIEADITGNRFTGKAKAEKAGDPIFTDSNYLEGGFYGPKAEEMAGKFFTNNKSLFAVFAAKSENGETTTERIIDATKIDLTQFNAKELNNFGDASVLIIDGQKIDLAGVNFKNSKTVEINGKTMVAVACCSNLEYMKFGQLWQKEGKQQVKDNSLFLQGERTATDKMPAGGNYKYVGTWDALVSKGTNWIAEADNNRESGYRTEFDVNFSDKKVNGKLFDKGGVNPVFTVDATINGNGFIGSAKTSDSGFALDAGSSQHGNAVFSDIKVNGGFYGPTAGELGGQFHHKSDNGSVGAVFGA |  | Kd (porcine transferrin [1]): ~0.12 µM |
| engineered (loop-reduced) TbpB N-lobe from Actinobacillus pleuropneumoniae strain H87, fusion protein with N-terminal maltose binding protein and polyhistidine … (receptor, also called engineered TbpB N-lobe H87; not shown: N-terminal polyhistidine region of the custom expression vector; TEV (tobacco etch virus) cleavage site) GSKLMEPALGYVTKIPVGPGSEISEIDTVTDESVSGAPGVVNSGYTIDVVHYGLRDKGSVSYKGVHPSKELPKGNIIVYQGEWDFTSNAGAAGRVGVTSADAKERTYISKFNIDFSNKKLNGQLLTKTKENQEKLRYTVEANISGNRFRGKATATDKTDPILGKDSEHLEGGLYGPKSEELAGKFVAHDKSLFAVFSGKRGNDVL |  | binding result (porcine transferrin [2]): no binding |
| native TbpB N-lobe from Actinobacillus pleuropneumoniae strain H49, fusion protein with N-terminal maltose binding protein and polyhistidine tag (receptor, also called Mbp-TbpB N-lobe; native h49 TbpB N-lobe; not shown: N-terminal polyhistidine region of the custom expression vector; TEV (tobacco etch virus) cleavage site) CSGGKGSFDLEDVRPNKTTGVSKEEYKDVETAKKEKEQLGELMEPALGYVVKVPVSSFENKKVDISDIEVITNGNLDDVPYKANSSKYNYPDIKTKDSSLQYVRSGYVIDGEHSGSNEKGYVYYKGNSPAKELPVNQLLTYTGSWDFTSNANLNNEEGRPNYLNDDYYTKFIGKRVGLVSGDAKPAKHKYTSQFEVDFATKKMTGKLSDKEKTIYTVNADIRGNRFTGAATASDKNKGKGESYNFFSADSQSLEGGFYGPKAEEMAGKFVANDKSLFAVF |  | binding result (porcine transferrin [3]): binds |
| Y167A mutant of H. parasuis TbpB 27-577 derived from the Nagasaki strain Hp5 (receptor, also called Y167A TbpB; Y167A mutant TbpB) CSGGKGSFDLEDVQPNKTTGVSKEEYKDVETDKKVKEQLGELMEPALGYVVKVPVSQSGVKRTEISNPEAITDEDLNKIPNYEIIKGVAYPNYGELVDKTAAETMKYVRSGYVIDVYHSGTRDKGYVFYKGITPSKELPQGPALTYQGEWDFTSDANLNNEEGRPTALNDDYYTTWIGKRAGLVSGDAKPSKHKYTSQFKVDFATKKMTGKLSDKEKTIYTVNADIRGNRFTGSATASDKDKGKGASYNFFSVDSQSLEGGFYGPKAEEMAGKFVADDKSLFAVFSAKHNASNVNTVRIIDASKIDLTNFSISELTNFGDASVLIIDGKKMELAGSEFTNKHTIDINGKKMVAVACCSNLEYMKFGQLWQQTEGEKQVKDNSLFLQGERTATDKMPKDGNYKYIGTWDAQVSKENNYWVATADDDRKAGYRTEFDVDFGSKNLSGKLFDKNGVNPVFTVNAKIDGNGFTGEAKTSDAGFVLDPGSLRHDNVKFSDVAVSGGFYGPTAAELGGQFRYQSDNGSVGVGAVFGAKQQVKK | 100 |  |
| W176A mutant of H. parasuis TbpB 27-577 derived from the Nagasaki strain Hp5 (receptor, also called W176A mutation in the TbpB from H. parasuis strain HP5) CSGGKGSFDLEDVQPNKTTGVSKEEYKDVETDKKVKEQLGELMEPALGYVVKVPVSQSGVKRTEISNPEAITDEDLNKIPNYEIIKGVAYPNAGELVDKTAAETMKYVRSGYVIDVYHSGTRDKGYVFYKGITPSKELPQGPALTYQGEWDFTSDANLNNEEGRPTYLNDDYYTTAIGKRAGLVSGDAKPSKHKYTSQFKVDFATKKMTGKLSDKEKTIYTVNADIRGNRFTGSATASDKDKGKGASYNFFSVDSQSLEGGFYGPKAEEMAGKFVADDKSLFAVFSAKHNASNVNTVRIIDASKIDLTNFSISELTNFGDASVLIIDGKKMELAGSEFTNKHTIDINGKKMVAVACCSNLEYMKFGQLWQQTEGEKQVKDNSLFLQGERTATDKMPKDGNYKYIGTWDAQVSKENNYWVATADDDRKAGYRTEFDVDFGSKNLSGKLFDKNGVNPVFTVNAKIDGNGFTGEAKTSDAGFVLDPGSLRHDNVKFSDVAVSGGFYGPTAAELGGQFRYQSDNGSVGVGAVFGAKQQVKK | 100 |  |
| Y174A mutant of A. pleuropneumoniae TbpB 26-528 derived from strain H87 (receptor) VNYTDEETQKRKKEELDKLMEPALGYVTKIPVNIPSVRKTEISEIDTVTDESLSLVPNEDKLRTIANENYGSVVTKSGSNTMNFVRSGYTIDVVHYGLRDKGYVYYKGVHPSKELPKGNIIVYQGEWDFTSNADLDAKRPNYNPEFNGAGAGQRVGVTSADAKERTYISKFNIDFSNKKLNGQLLTKTKENQEKLRYTVEANISGNRFRGKATATDKTDPILGKDSEHLEGGLYGPKSEELAGKFVAHDKSLFAVFSGKRGNDVLETVKIIDASKIDLTTFESSELNNFGNANVLIIDGQKIDLAGADFKNRKTVDINGKTMVAIACCSNLEYMKFGQLWQKEGEQTKDNSLFLQGERTATDKIPVGGNYKYVGTWDALVSKGTNWVAEADNNRESGYRSEFDVNFGDKKVSGKLFDKGGIVPVFMINADIKGNGFTGTANTTDTGFALDSGSSQHGNAVFSDIKVNGGFYGPTAGELGGQFHHKSDNGSVGAVFG | 100 |  |
